Source: patent US20210261648A1 (published 2021)

T1: FcγRIIa type R (human, UniProt P12318 34-217)
T1 chain: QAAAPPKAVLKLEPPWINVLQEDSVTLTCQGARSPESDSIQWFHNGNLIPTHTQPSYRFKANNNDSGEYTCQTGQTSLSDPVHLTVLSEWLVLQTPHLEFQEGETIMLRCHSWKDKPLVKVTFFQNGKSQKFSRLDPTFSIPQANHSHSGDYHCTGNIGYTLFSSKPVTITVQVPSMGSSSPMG

T2: FcγRIIb (human, UniProt P31994 43-217)
T2 construct: extracellular domain; also called FcgRIIb; CD32B
T2 sequence (looked up): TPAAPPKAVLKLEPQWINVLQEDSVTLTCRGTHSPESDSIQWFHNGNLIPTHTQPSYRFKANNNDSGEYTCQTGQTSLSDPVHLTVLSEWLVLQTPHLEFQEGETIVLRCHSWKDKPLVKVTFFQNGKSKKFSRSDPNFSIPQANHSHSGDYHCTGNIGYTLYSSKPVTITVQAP

T3: FcγRIIa type H (human, UniProt P12318 34-217)
T3 construct: extracellular domain; also called FcγRIIaH; FcgRIIaH
T3 sequence (looked up): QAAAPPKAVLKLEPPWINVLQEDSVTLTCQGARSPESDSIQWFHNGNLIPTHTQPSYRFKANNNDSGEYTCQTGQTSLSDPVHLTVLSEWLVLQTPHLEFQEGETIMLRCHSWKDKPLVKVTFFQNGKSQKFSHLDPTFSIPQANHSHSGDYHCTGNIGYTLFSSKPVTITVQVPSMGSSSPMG


Assays:
[1] = molecular target: T1, FcγRIIa type R; assay: SPR (Biacore); parent = IL6R-B3/IL6R-L
[2] = molecular target: T2, FcγRIIb; assay: SPR (Biacore); parent = IL6R-B3/IL6R-L
[3] = molecular target: T1, FcγRIIa type R; assay: SPR (Biacore), captured antibody, soluble FcγR
[4] = molecular target: T3, FcγRIIa type H; assay: SPR (Biacore), captured antibody, soluble FcγR
[5] = molecular target: T4, FcγRIa (human, UniProt P12314 16-292); assay: SPR (Biacore), captured antibody, soluble FcγR
T4 construct: Whole entry named; also called FcgRIa; CD64A
T4 sequence (P12314 16-292): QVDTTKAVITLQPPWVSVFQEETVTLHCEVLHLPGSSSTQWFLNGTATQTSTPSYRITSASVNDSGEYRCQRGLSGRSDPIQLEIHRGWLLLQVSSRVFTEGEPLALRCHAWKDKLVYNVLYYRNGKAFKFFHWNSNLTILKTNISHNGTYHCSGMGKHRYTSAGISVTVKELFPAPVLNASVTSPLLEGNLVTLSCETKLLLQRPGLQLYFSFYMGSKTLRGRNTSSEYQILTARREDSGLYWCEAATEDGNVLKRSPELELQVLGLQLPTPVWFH

[6] = molecular target: T2, FcγRIIb; assay: SPR (Biacore), captured antibody, soluble FcγR

Binder | KD(IIaR) of the parent polypeptide/KD(IIaR) of the altered polypeptide [1] | KD(IIb) of the parent polypeptide/KD(IIb) of the altered polypeptide [2] | Kd [3] | Kd [4] | Kd [5] | Kd [6]
IL6R-BP496/IL6R-L (antibody, human IgG1, kappa, Alterations in EU numbering, introduced into IL6R-B3) heavy: QVQLQESGPGLVKPSETLSLTCAVSGHSISHDHAWSWVRQPPGEGLEWIGFISYSGITNYNPSLQGRVTISRDNSKNTLYLQMNSLRAEDTAVYYCARSLARTTAMDYWGEGTLVTVSSASTKGPSVFPLAPSSKSTSGGTAALGCLVKDYFPEPVTVSWNSGALTSGVHTFPAVLQSSGLYSLSSVVTVPSSSLGTQTYICNVNHKPSNTKVDKKVEPKSCDKTHTCPPCPAPDLLGDDSVFLFPPKPKDTLMISRTPEVTCVVIDVAEEDGEVKFNWYVDGVEVHNAKTKPREEQDNSTYRVVSVLTVLHQDWLNGKEYKCKVSNKALPAPIEKTISKAKGQPREPQVYTLPPSRDELTKNQVSLTCLVKGFYPSDIAVEWESNGQPENNYKTTPPVLDSDGSFFLYSKLTVDKSRWQQGNVFSCSVMHEALHNHYTQESLSLSP light: not shown | 2.3 fold | 168 fold | 470 nM | 3700 nM | 1.2 nM | 18 nM
IL6R-BP502/IL6R-L (antibody, human IgG1, kappa, Alterations in EU numbering, introduced into IL6R-B3) heavy: QVQLQESGPGLVKPSETLSLTCAVSGHSISHDHAWSWVRQPPGEGLEWIGFISYSGITNYNPSLQGRVTISRDNSKNTLYLQMNSLRAEDTAVYYCARSLARTTAMDYWGEGTLVTVSSASTKGPSVFPLAPSSKSTSGGTAALGCLVKDYFPEPVTVSWNSGALTSGVHTFPAVLQSSGLYSLSSVVTVPSSSLGTQTYICNVNHKPSNTKVDKKVEPKSCDKTHTCPPCPAPDLLGDDSVFLFPPKPKDTLMISRTPEVTCVVIDVAEEDGEVKFNWYVDGVEVHNAKTKPREEQDNSTYRVVSVLTVLHQDWLNGKEYKCKVSNKGLPRPIEKTISKAKGQPREPQVYTLPPSRDELTKNQVSLTCLVKGFYPSDIAVEWESNGQPENNYKTTPPVLDSDGSFFLYSKLTVDKSRWQQGNVFSCSVMHEALHNHYTQESLSLSP light: not shown | 10.1 fold | 840 fold | 110 nM | 1300 nM | 2.1 nM | 3.7 nM
IL6R-BP491/IL6R-L (antibody, human IgG1, kappa, Alterations in EU numbering, introduced into IL6R-B3) heavy: QVQLQESGPGLVKPSETLSLTCAVSGHSISHDHAWSWVRQPPGEGLEWIGFISYSGITNYNPSLQGRVTISRDNSKNTLYLQMNSLRAEDTAVYYCARSLARTTAMDYWGEGTLVTVSSASTKGPSVFPLAPSSKSTSGGTAALGCLVKDYFPEPVTVSWNSGALTSGVHTFPAVLQSSGLYSLSSVVTVPSSSLGTQTYICNVNHKPSNTKVDKKVEPKSCDKTHTCPPCPAPELLGDDSVFLFPPKPKDTLMISRTPEVTCVVIDVAEEDGEVKFNWYVDGVEVHNAKTKPREEQDNSTYRVVSVLTVLHQDWLNGKEYKCKVSNKALPRPIEKTISKAKGQPREPQVYTLPPSRDELTKNQVSLTCLVKGFYPSDIAVEWESNGQPENNYKTTPPVLDSDGSFFLYSKLTVDKSRWQQGNVFSCSVMHEALHNHYTQESLSLSP light: not shown | 9.3 fold | 1020 fold | 120 nM | 2200 nM | 5.3 nM | 3 nM

The next binders have a lower Kd [3] than those just listed; values first:

KD(IIaR) of the parent polypeptide/KD(IIaR) of the altered polypeptide [1] | KD(IIb) of the parent polypeptide/KD(IIb) of the altered polypeptide [2] | Kd [3] | Kd [4] | Kd [5] | Kd [6] | Binder
25.7 fold | 3100 fold | 43 nM | 870 nM | 1.3 nM | 1 nM | IL6R-BP489/IL6R-L (antibody, human IgG1, kappa, Alterations in EU numbering, introduced into IL6R-B3) heavy: QVQLQESGPGLVKPSETLSLTCAVSGHSISHDHAWSWVRQPPGEGLEWIGFISYSGITNYNPSLQGRVTISRDNSKNTLYLQMNSLRAEDTAVYYCARSLARTTAMDYWGEGTLVTVSSASTKGPSVFPLAPSSKSTSGGTAALGCLVKDYFPEPVTVSWNSGALTSGVHTFPAVLQSSGLYSLSSVVTVPSSSLGTQTYICNVNHKPSNTKVDKKVEPKSCDKTHTCPPCPAPDLLGDDSVFLFPPKPKDTLMISRTPEVTCVVIDVAEEDGEVKFNWYVDGVEVHNAKTKPREEQDNSTYRVVSVLTVLHQDWLNGKEYKCKVSNKALPRPIEKTISKAKGQPREPQVYTLPPSRDELTKNQVSLTCLVKGFYPSDIAVEWESNGQPENNYKTTPMVLDSDGSFFLYSKLTVDKSRWQQGNVFSCSVMHEALHNHYTQESLSLSP light: not shown
12.9 fold | 764 fold | 85 nM | 960 nM | 2.1 nM | 4.1 nM | IL6R-BP497/IL6R-L (antibody, human IgG1, kappa, Alterations in EU numbering, introduced into IL6R-B3) heavy: QVQLQESGPGLVKPSETLSLTCAVSGHSISHDHAWSWVRQPPGEGLEWIGFISYSGITNYNPSLQGRVTISRDNSKNTLYLQMNSLRAEDTAVYYCARSLARTTAMDYWGEGTLVTVSSASTKGPSVFPLAPSSKSTSGGTAALGCLVKDYFPEPVTVSWNSGALTSGVHTFPAVLQSSGLYSLSSVVTVPSSSLGTQTYICNVNHKPSNTKVDKKVEPKSCDKTHTCPPCPAPDLLGDDSVFLFPPKPKDTLMISRTPEVTCVVIDVAEEDGEVKFNWYVDGVEVHNAKTKPREEQYNSTYRVVSVLTVLHQDWLNGKEYKCKVSNKGLPRPIEKTISKAKGQPREPQVYTLPPSRDELTKNQVSLTCLVKGFYPSDIAVEWESNGQPENNYKTTPPVLDSDGSFFLYSKLTVDKSRWQQGNVFSCSVMHEALHNHYTQESLSLSP light: not shown
22.3 fold | 2120 fold | 49 nM | 1000 nM | 1.2 nM | 1.5 nM | IL6R-BP499/IL6R-L (antibody, human IgG1, kappa, Alterations in EU numbering, introduced into IL6R-B3) heavy: QVQLQESGPGLVKPSETLSLTCAVSGHSISHDHAWSWVRQPPGEGLEWIGFISYSGITNYNPSLQGRVTISRDNSKNTLYLQMNSLRAEDTAVYYCARSLARTTAMDYWGEGTLVTVSSASTKGPSVFPLAPSSKSTSGGTAALGCLVKDYFPEPVTVSWNSGALTSGVHTFPAVLQSSGLYSLSSVVTVPSSSLGTQTYICNVNHKPSNTKVDKKVEPKSCDKTHTCPPCPAPDLLGDDSVFLFPPKPKDTLMISRTPEVTCVVIDVAEEDGEVKFNWYVDGVEVHNAKTKPREEQDNSTYRVVSVLTVLHQDWLNGKEYKCKVSNKALPRPIEKTISKAKGQPREPQVYTLPPSRDELTKNQVSLTCLVKGFYPSDIAVEWESNGQPENNYKTTPLVLDSDGSFFLYSKLTVDKSRWQQGNVFSCSVMHEALHNHYTQESLSLSP light: not shown
21.7 fold | 1880 fold | 51 nM | 930 nM | 1.3 nM | 1.7 nM | IL6R-BP498/IL6R-L (antibody, human IgG1, kappa, Alterations in EU numbering, introduced into IL6R-B3) heavy: QVQLQESGPGLVKPSETLSLTCAVSGHSISHDHAWSWVRQPPGEGLEWIGFISYSGITNYNPSLQGRVTISRDNSKNTLYLQMNSLRAEDTAVYYCARSLARTTAMDYWGEGTLVTVSSASTKGPSVFPLAPSSKSTSGGTAALGCLVKDYFPEPVTVSWNSGALTSGVHTFPAVLQSSGLYSLSSVVTVPSSSLGTQTYICNVNHKPSNTKVDKKVEPKSCDKTHTCPPCPAPDLLGDDSVFLFPPKPKDTLMISRTPEVTCVVIDVAEEDGEVKFNWYVDGVEVHNAKTKPREEQYNSTYRVVSVLTVLHQDWLNGKEYKCKVSNKALPRPIEKTISKAKGQPREPQVYTLPPSRDELTKNQVSLTCLVKGFYPSDIAVEWESNGQPENNYKTTPLVLDSDGSFFLYSKLTVDKSRWQQGNVFSCSVMHEALHNHYTQESLSLSP light: not shown
